The supplement of paper PMC10567573
± gives the standard deviation.

Experiment: protein stability index of a GFP-peptide fusion (GPS, HEK-293T) (PSI 1-6); higher = more stable
[1] = treatment: DMSO, c terminus: a fixed tail appended
[2] = treatment: MLN4924 1 uM, 8 h, c terminus: a fixed tail appended
[3] = treatment: DMSO, c terminus: native
[4] = treatment: MLN4924 1 uM, 8 h, c terminus: native
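Note: 24-mer peptide tiles fused after GFP, lentivirally expressed, FACS-sorted into six equal bins by GFP/DsRed ratio, decoded by Illumina sequencing, PSI is the read-weighted mean bin number.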

Row | Sequence | protein stability index [1] | protein stability index [2] | protein stability index [3] | protein stability index [4]
1 | SPHSPDSSQSSLAQEEEEEDQGRT [DDIT3] | 5.57 ± 0.21 | 5.54 ± 0.17 |  | 
2 | SPVSRNRLAQVKRKILVLDLDETL [CTDNEP1] | 2.6 ± 0.35 | 2.77 ± 0.36 |  | 
3 | SPVTENSTSLSFLDSCNSLTPKST [MYBL2] | 4.91 ± 0.15 | 4.77 ± 0.14 |  | 
4 | SPYLGQMINLRRLLLSHIHASSYI [PRAME] | 2.7 ± 0.51 | 2.47 ± 0.48 |  | 
5 | SQAHSTLKLANHQRPVSRQVTCLR [TRAF3IP2] | 3.5 ± 0.21 | 3.61 ± 0.44 |  | 
6 | SQDFVGEKLGSGEPSHSVKVHTVP [ATE1] | 4.78 ± 0.17 | 4.83 ± 0.26 |  | 
7 | SQSFSLYVKYQVAIHQDPPDECGK [ATE1] | 2.75 ± 0.37 | 2.5 ± 0.35 |  | 
8 | SRDGMNIVLNKINQILMEKYLKLQ [INTS3] | 3.05 ± 0.81 | 2.43 ± 0.58 |  | 
9 | SREWSGKEKWWDGQRDRKAEHWKH [PBXIP1] | 3.69 ± 0.27 | 3.91 ± 0.064 |  | 
10 | SRLPAKCPGKGAWSIPWKWLFGAT [FKBP8] | 1.99 ± 0.22 | 2.05 ± 0.28 |  | 
11 | SRVKCDQYWPSRGTETHGLVQVTL [PTPRD] | 2.42 ± 0.39 | 2.05 ± 0.4 |  | 
12 | SSCNGPGQTTGHPYYLRSFLVVLK [FAN1] | 2.21 ± 0.47 | 2.51 ± 0.47 |  | 
13 | SSKSSGDLVDLFDGTSQSTGGSAD [CLINT1] | 5.41 ± 0.22 | 5.55 ± 0.21 |  | 
14 | SSLLAPAKHLIASMLSKNPEDRPS [PLK2] | 3.2 ± 0.38 | 3.37 ± 0.18 |  | 
15 | SSTSGGSGYGFRPSMVSGGYVANS [KRT71] | 3.29 ± 0.31 | 3.46 ± 0.49 |  | 
16 | STKTPAPCSEFMEPSSDPSLLGEP [SPAG8] | 5.24 ± 0.44 | 5.25 ± 0.081 |  | 
17 | STPLMEAAQEGHLELVKYLLAAGA [ANKRD17] | 2.22 ± 0.15 | 2.48 ± 0.65 |  | 
18 | SVKLRALRSPRKFGVAGRSCQEVL [DFFB] | 2.73 ± 0.34 | 3.01 ± 0.54 |  | 
19 | SVSRPEGRSWPSAPDDSKAQAHRI [PDLIM4] | 4.76 ± 0.21 | 4.95 ± 0.18 |  | 
20 | SWDTESSGSDSGGSSSSSSSSINS [FAM104A] | 5.25 ± 0.22 | 5.1 ± 0.26 |  | 
21 | SYATEADIISTVEFNHTGELLATG [PPP2R2B] | 3.9 ± 0.43 | 3.94 ± 0.32 |  | 
22 | SYKARLPLRLFLIIANTMAFQNDV [SCD] | 2.66 ± 0.53 | 2.5 ± 0.2 |  | 
23 | SYLHAKKYLKPSGNMFPTIGDVHL [CARM1] | 2.35 ± 0.39 | 2.64 ± 0.52 |  | 

Row | Sequence | protein stability index [1] | protein stability index [2] | protein stability index [3] | protein stability index [4]
24 | SYLMDHFIPSSHNDRDFLTRIFTE [PPEF2] | 2.5 ± 0.19 | 2.51 ± 0.28 |  | 
25 | SYYNSPGLHVQHMGTSHGITRPSP [CCDC6] | 3.2 ± 0.29 | 3.24 ± 0.39 |  | 
26 | TAFLPDSKCLVDDGTGRMPTLKKC [GALNT9] | 4.17 ± 0.18 | 4.16 ± 0.31 |  | 
27 | TAIRPLKILPWSPEKIGTRFLLYT [PNLIPRP1] | 2.23 ± 0.21 | 2.37 ± 0.24 |  | 
28 | TAIRQLTEPSGRVAKKTPTKRSTL [C2CD2L] | 4.37 ± 0.15 | 4.44 ± 0.084 |  | 
29 | TAISSFTRHVFTCGRRGIKVWSLT [TLE6] | 2.15 ± 0.47 | 2.16 ± 0.44 |  | 
30 | TAKRINRTSLSSGATVRSFSINSR [CDC14A] | 3.26 ± 0.41 | 3.6 ± 0.12 |  | 
31 | TAPLTELLHSRNEGVATYAAAVLF [CTNNB1] | 2.25 ± 0.46 | 2.36 ± 0.34 |  | 
32 | TCGEGYQFRVVRCWKMLSPGFDSS [ADAMTSL2] | 2.77 ± 0.43 | 2.28 ± 0.38 |  | 
33 | TDFYLIFNDVAKFLKQGDSADETT [CMTM3] | 2.75 ± 0.31 | 2.6 ± 0.33 |  | 
34 | TDLEMQIEGLKEELAYLRKNHEEE [KRT16] | 5.24 ± 0.098 | 5.45 ± 0.23 |  | 
35 | TEQALRLSVEADINGLRRVLDELT [KRT17] | 3.07 ± 0.2 | 3.18 ± 0.25 |  | 
36 | TEVPYATFTEHPMKYTSEKFLEIC [TPRG1] | 2.64 ± 0.068 | 2.75 ± 0.12 |  | 
37 | TFFGTELAPVRQQELASLLRTYLA [PBXIP1] | 2.22 ± 0.29 | 2.48 ± 0.43 |  | 
38 | TGPRLSFPLLPDHATALVEAFRLK [PPEF2] | 2.89 ± 0.23 | 3.07 ± 0.19 |  | 
39 | TGYPYRYPALREKSKKYSDVEVPA [ADD1] | 3.67 ± 0.081 | 3.66 ± 0.044 |  | 
40 | THQTQPGIRRARDKALSGGKRKET [NET1] | 4.79 ± 0.23 | 5 ± 0.17 |  | 
41 | TIEQSLLEVMEEEELANLRASQRE [RSPH3] | 4.68 ± 0.24 | 4.88 ± 0.18 |  | 
42 | TILNVRDPTGASIALFTARLHHPH [PTPN9] | 2.5 ± 0.21 | 1.89 ± 0.18 |  | 
43 | TKFEVRLLRDPADASEAHESSSRG [CHGB] | 4.61 ± 0.26 | 4.64 ± 0.12 |  | 
44 | TLARCAKDILGFAVMFFIVFFAYA [PKD2L1] | 3.07 ± 0.66 | 2.68 ± 0.35 |  | 
45 | TLARMSRRTRGPVERAAAAAAAAA [C6orf223] | 3.02 ± 0.56 | 3.43 ± 0.91 |  | 
46 | TLDSYEDKQKLKRTEIISRSWFPS [YJU2B] | 3.14 ± 0.12 | 3.24 ± 0.29 |  | 

Row | Sequence | protein stability index [1] | protein stability index [2] | protein stability index [3] | protein stability index [4]
47 | TLEEIQKHNHSKSTWLILHHKVYD [CYB5A] | 2.37 ± 0.19 | 2.58 ± 0.24 |  | 
48 | TLGEQGLPHQSHRQRSSLAKINIV [SCNN1D] | 3.27 ± 0.28 | 3.33 ± 0.1 |  | 
49 | TLLEAEPPHVLISRPSAPFTEASM [ESR2] | 3.31 ± 0.26 | 3.46 ± 0.29 |  | 
50 | TLTKQDTMLKAMFSGRMEVLTDSE [KCTD10] | 4.09 ± 0.26 | 4.32 ± 0.2 |  | 
51 | TMGMGMPNIAMTSGTVQPKQDAFA [CLINT1] | 3.9 ± 0.17 | 3.98 ± 0.21 |  | 
52 | TMIQQQNMQQPMNVMTQSFGAVNL [CLINT1] | 2.69 ± 0.39 | 2.94 ± 0.39 |  | 
53 | TNCWLIRELNLPFGGMKSSGIGRE [ALDH8A1] | 2.31 ± 0.41 | 2.29 ± 0.33 |  | 
54 | TNMARIREIMEKFGKQPVSLPARR [CPXM2] | 2.72 ± 0.1 | 3.06 ± 0.31 |  | 
55 | TPEAKDLINKMLTINPSKRITAAE [CAMK2A] | 4.28 ± 0.17 | 4.42 ± 0.1 |  | 
56 | TPIQLQELLALETALGGQCVDRQE [TCAP] | 4.52 ± 0.11 | 4.47 ± 0.26 |  | 
57 | TPKLDCFLSGMEAAPRTLAAHPPL [TBX6] | 3.18 ± 0.17 | 3.48 ± 0.2 |  | 
58 | TPMLNPLIYTLKNAEMKSAMRKLW [OR4A15] | 2.11 ± 0.32 | 2.04 ± 0.16 |  | 
59 | TPVSNSLLPEKAFSDIPSPYLRGT [GFOD1] | 4.03 ± 0.28 | 3.98 ± 0.1 |  | 
60 | TQAHIQECKHPSVFQHGDNSFRLL [MCOLN1] | 2.78 ± 0.11 | 2.92 ± 0.16 |  | 
61 | TQELVAIKIIKNKKAFLNQAQIEL [DYRK1B] | 2.18 ± 0.27 | 2.17 ± 0.3 |  | 
62 | TQIEDATEKLKANAESSKTWLKGK [TRIM14] | 4.95 ± 0.37 | 5 ± 0.18 |  | 
63 | TREKAKFSDGEKCRREAFRRLGNG [PHTF1] | 3.65 ± 0.17 | 3.62 ± 0.39 |  | 
64 | TRKHYQVTGYGINGTGDSNDFWRI [POMT2] | 2.34 ± 0.25 | 2.32 ± 0.28 |  | 
65 | TRRSTAEAFQIVLSHLLGDAGSPY [SPNS1] | 2.52 ± 0.58 | 2.56 ± 0.46 |  | 
66 | TSDAAFLTQWKDSLVSLVLYNMDL [ZER1] | 2.71 ± 0.52 | 2.56 ± 0.44 |  | 
67 | TSSKPTALPSASSAYFPGQLPNS [SASS6] |  |  | 4.42 ± 0.41 | 4.4 ± 0.26
68 | TSSKVNATVPSNMMSVNGQAKTHT [ACBD3] | 4.38 ± 0.13 | 4.45 ± 0.082 |  | 
69 | TSSSLGDKSEYLEMEEGVKESLCA [KCNA4] | 5.1 ± 0.14 | 4.77 ± 0.41 |  | 

Row | Sequence | protein stability index [1] | protein stability index [2] | protein stability index [3] | protein stability index [4]
70 | TSSSSSSSRQTRPILKEQSSSSFS [KRT16] | 4.66 ± 0.14 | 4.61 ± 0.11 |  | 
71 | TTADLDRKLSFSHSDHSSEMSLPE [SPATS1] | 5.08 ± 0.19 | 4.82 ± 0.27 |  | 
72 | TVAGKHQDLKYISPEIMASVLNGK [CDC25A] | 3.17 ± 0.2 | 3.3 ± 0.32 |  | 
73 | TWASPAEVVDLTLDEDSRRKYLL [C18orf25] |  |  | 4.49 ± 0.44 | 4.68 ± 0.53
74 | TYAMGHLIQRKKVHVFGDELSLVT [TNFSF13B] | 2.32 ± 0.3 | 2.42 ± 0.21 |  | 
75 | TYLENKGHRYPCFFNTLHVGGTIR [POP5] | 2.23 ± 0.14 | 2.19 ± 0.052 |  | 
76 | VAETSGETIQGFWLLTKIDHWNNE [TPRG1] | 2.11 ± 0.36 | 2.31 ± 0.26 |  | 
77 | VALPTEAEFQLVRDVVLCSLLNFL [TENT5C] | 2.14 ± 0.28 | 2.13 ± 0.37 |  | 
78 | VCQEVLERSRDVVDEVSVSLRLWD [RHOBTB1] | 3.1 ± 0.48 | 3.36 ± 0.46 |  | 
79 | VDRLPGLQGALDLLAVLCVDGSGR [ZSWIM9] | 2.01 ± 0.34 | 2.27 ± 0.24 |  | 
80 | VDYKQSVLNVAGEAGGKQKAVEEE [SLC6A17] | 5.52 ± 0.44 | 5.68 ± 0.3 |  | 
81 | VEVDESEPYPSQLLKPIPEYSPEE [TRAF3IP2] | 5.48 ± 0.44 | 5.46 ± 0.35 |  | 
82 | VFCDMETDGGGWLVFQRRMDGQTD [TNXB] | 2.9 ± 0.27 | 2.98 ± 0.096 |  | 
83 | VFDAMFNGGMATTSAEIELPDVEP [BTBD1] | 4.68 ± 0.28 | 4.77 ± 0.24 |  | 
84 | VFGRGDNISDVSKFLEDDKWMEE [LUC7L3] |  |  | 2.4 ± 0.54 | 3.38 ± 0.96
85 | VFISSYMVLAPVFGYLGDRYNRKY [SPNS1] | 3.16 ± 0.49 | 2.87 ± 0.62 |  | 
86 | VGESVEEAFYYIHNLVVACEIQVR [ADD1] | 2.79 ± 0.37 | 2.91 ± 0.72 |  | 
87 | VGLIQAAQQLLCDEQAPQRQRLLA [DFFB] | 3.28 ± 0.12 | 3.19 ± 0.12 |  | 
88 | VGSVHVDSGASAITRESHTHRDRP [CSNK1G1] | 4.85 ± 0.25 | 4.66 ± 0.32 |  | 
89 | VHRLDLILCNKTAYQEVFKPENIS [SMG5] | 2.12 ± 0.48 | 2.15 ± 0.4 |  | 
